Measurements from the supplement of paper PMC10126150.
± gives the standard deviation of the averaged measurements.

Test system: ATP
Assay: switch fluorescence ratio, 500 uM ATP over buffer (Cy3 cluster intensity, sum of 5 cycles each) (fold (ratio)); higher = stronger signal-on switching upon ATP binding; sequences stand for … in TCGTCGGCAGCGTCAGATGTGTATAAGAGACAGTTTTTTTTTTTTTTTTTTTTTTTTT…TC
Conditions: aptamer strand: ATP DNA aptamer (quencher-CACCTGGGGGAGTATTGCGGAGGAAGG + anchor), 100 nM annealed; ATP concentration: 500 uM
Procedure, shortened: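 Five buffer/ATP imaging cycles were run on Cy3-labelled switching-strand clusters on a modified Illumina MiSeq flow-cell, with NaOH stripping and re-annealing between cycles. In each cycle, clusters annealed to 100 nM quencher-labelled ATP aptamer were imaged in selection buffer, then after 15 min with 500 uM ATP at 22 °C. Per cluster, the fluorescence ratio is summed target-cycle over summed buffer-cycle Cy3 intensity, averaged per switch-domain sequence. Only clusters within 100-1000 RFU were kept.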
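Note: ATP exposure 15 min at 22 °C before imaging.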

Row | Sequence | switch fluorescence ratio
1 | CCTCCAGGTT | 3.69 ± 3.2
2 | CCTCGGTGCG | 1.02 ± 0.0087
3 | CCTCGTTTTT | 1.11 ± 0.053
4 | CCTCTATTCA | 1.06 ± 0.019
5 | CCTCTATTGG | 1.045 ± 0.0041
6 | CCTCTTAACT | 1.13 ± 0.037
7 | CCTCTTCATA | 2.54 ± 0.28
8 | CCTCTTTTTT | 1.1 ± 0.035
9 | CCTGAATTTC | 1.12 ± 0.14
10 | CCTGACTTTC | 1.11 ± 0.045
11 | CCTGACTTTG | 0.972 ± 0.043
12 | CCTGAGGGCG | 1.037 ± 0.01
13 | CCTGAGTCGT | 1.09 ± 0.017
14 | CCTGATGCGG | 1.02 ± 0.059
15 | CCTGCAGAGC | 1.28 ± 0.058
16 | CCTGCATGTG | 1.26 ± 0.02
17 | CCTGCCCTGT | 1.108 ± 0.0022
18 | CCTGCCTCCT | 2.27 ± 0.041
19 | CCTGCGTTTT | 1.75 ± 0.32
20 | CCTGCTCATC | 1.99 ± 0.22
21 | CCTGCTGGCG | 1.04 ± 0.12
22 | CCTGGATGTA | 1.02 ± 0.025
23 | CCTGGATTAG | 1.05 ± 0.041
24 | CCTGGATTCA | 0.9888 ± 0.002
25 | CCTGGATTTA | 1.01 ± 0.011

Row | Sequence | switch fluorescence ratio
26 | CCTGGCTGAT | 1.11 ± 0.058
27 | CCTGGCTTGA | 0.996 ± 0.016
28 | CCTGGGAGGA | 1.012 ± 0.0014
29 | CCTGGGCGTC | 1.037 ± 0.004
30 | CCTGGGGCGG | 1.07 ± 0.019
31 | CCTGGGGGAA | 1.025 ± 0.0073
32 | CCTGGGGGAG | 1.05 ± 0.11
33 | CCTGGGGGGG | 1.03 ± 0.05
34 | CCTGGGGTCT | 1.03 ± 0.015
35 | CCTGGGGTTG | 1.05 ± 0.14
36 | CCTGGGTCTG | 1.001 ± 0.006
37 | CCTGGGTGTG | 1.05 ± 0.11
38 | CCTGTAAATG | 1.15 ± 0.21
39 | CCTGTCTTCT | 0.9869 ± 0.0061
40 | CCTGTGATTC | 1.23 ± 0.058
41 | CCTGTGCCCG | 1.01 ± 0.041
42 | CCTGTTTATT | 0.974 ± 0.012
43 | CCTTAAGACA | 1.06 ± 0.015
44 | CCTTAGGTTT | 1.002 ± 0.0011
45 | CCTTATAATT | 1.02 ± 0.035
46 | CCTTATGGGG | 1 ± 0.023
47 | CCTTATTTCT | 1 ± 0.031
48 | CCTTGCAGAT | 1.99 ± 0.78
49 | CCTTGGGGAA | 0.98 ± 0.013
50 | CCTTGGGGTG | 1.06 ± 0.14

Row | Sequence | switch fluorescence ratio
51 | CCTTGTGGGA | 0.983 ± 0.011
52 | CCTTGTTTTT | 1.01 ± 0.01
53 | CCTTTAGATT | 1.01 ± 0.013
54 | CCTTTCACTC | 1.124 ± 0.0035
55 | CCTTTCAGGA | 0.9993 ± 0.0015
56 | CCTTTCGGGT | 0.982 ± 0.039
57 | CCTTTCGTGT | 1.19 ± 0.22
58 | CCTTTGCAGG | 2.45 ± 0.27
59 | CCTTTGCCCG | 1.07 ± 0.17
60 | CCTTTTGTGG | 1.015 ± 0.0068
61 | CGAAAAGGTG | 1.05 ± 0.054
62 | CGAAAATAAT | 0.9817 ± 0.0022
63 | CGAAAATATC | 0.989 ± 0.023
64 | CGAAAATGTA | 0.9772 ± 0.0089
65 | CGAAAGAAAT | 1.02 ± 0.031
66 | CGAAAGCAGG | 1.1681 ± 0.00099
67 | CGAAAGGTTG | 0.939 ± 0.017
68 | CGAAATGGCA | 1.03 ± 0.045
69 | CGAAATTACG | 1.04 ± 0.021
70 | CGAAGAAAGG | 1.16 ± 0.013
71 | CGAAGAGGCG | 0.997 ± 0.052
72 | CGAAGAGGTC | 1.02 ± 0.032
73 | CGAAGATCGA | 0.982 ± 0.042
74 | CGAAGCAGCG | 1.4 ± 0.044
75 | CGAAGCTTAT | 2.74 ± 0.53

Row | Sequence | switch fluorescence ratio
76 | CGAAGGCTGT | 1.003 ± 0.0095
77 | CGAAGGGGTG | 0.9749 ± 0.0032
78 | CGAAGTTGAC | 1.63 ± 0.13
79 | CGAAGTTTCG | 1.02 ± 0.017
80 | CGAAGTTTTT | 0.998 ± 0.004
81 | CGAATAAGAA | 0.9383 ± 0.0074
82 | CGAATATAGC | 1.02 ± 0.015
83 | CGAATCCAGG | 2.46 ± 0.062
84 | CGAATCCATT | 0.9869 ± 0.0033
85 | CGAATCCCCA | 1.07 ± 0.032
86 | CGAATCGGTA | 0.969 ± 0.00014
87 | CGAATCGGTG | 1.01 ± 0.019
88 | CGAATGGGAC | 1.042 ± 0.007
89 | CGAATGGGTT | 0.965 ± 0.011
90 | CGAATGTTGG | 0.99 ± 0.041
91 | CGAATTAGGT | 1.03 ± 0.019
92 | CGACAAGCTT | 1.03 ± 0.016
93 | CGACAATCAT | 1.039 ± 0.0036
94 | CGACAGCGGC | 2.11 ± 0.094
95 | CGACATATCC | 1.12 ± 0.027
96 | CGACATGGTC | 1.02 ± 0.015
97 | CGACCACGTA | 1.12 ± 0.029
98 | CGACGAGTAA | 1.32 ± 0.36
99 | CGACGATCGT | 0.971 ± 0.028
100 | CGACGATGAC | 5.46 ± 0.077

Row | Sequence | switch fluorescence ratio
101 | CGACGATTTG | 1.01 ± 0.026
102 | CGACGCGGTA | 3.14 ± 0.059
103 | CGACGCTTGT | 3.15 ± 0.38
104 | CGACGGGGCT | 1.13 ± 0.049
105 | CGACGGGTTT | 1.08 ± 0.035
106 | CGACGTTCGC | 1.48 ± 0.037
107 | CGACTACTTT | 1.05 ± 0.031
108 | CGACTAGGAA | 1.04 ± 0.023
109 | CGACTAGGGG | 1.01 ± 0.024
110 | CGACTGGGGG | 0.957 ± 0.026
111 | CGACTTGGAA | 1.02 ± 0.036
112 | CGAGACTAGT | 1.01 ± 0.063
113 | CGAGACTTAT | 0.996 ± 0.013
114 | CGAGATTTGT | 1.011 ± 0.0097
115 | CGAGCAGTGG | 1.1 ± 0.034
116 | CGAGCCAGAT | 1.04 ± 0.028
117 | CGAGCGGAAG | 1.03 ± 0.032
118 | CGAGCTTGAG | 0.99 ± 0.002
119 | CGAGGAAGGG | 1.01 ± 0.021
120 | CGAGGACGGG | 1 ± 0.029
121 | CGAGGATAAC | 1.03 ± 0.043
122 | CGAGGATGT | 1.01 ± 0.011
123 | CGAGGCACAG | 1.53 ± 0.052
124 | CGAGGCTAGG | 1.07 ± 0.021
125 | CGAGGGAACG | 1 ± 0.04

Row | Sequence | switch fluorescence ratio
126 | CGAGGGACTG | 0.984 ± 0.0099
127 | CGAGGGATGG | 0.977 ± 0.05
128 | CGAGGGGAGG | 1.05 ± 0.028
129 | CGAGGGGGA | 1.0066 ± 0.00091
130 | CGAGGGGGTG | 1.02 ± 0.055
131 | CGAGGGTTGG | 1.02 ± 0.018
132 | CGAGTAAAAT | 1.08 ± 0.1
133 | CGAGTAGGGA | 0.995 ± 0.021
134 | CGAGTAGTAG | 1.03 ± 0.059
135 | CGAGTCCATC | 0.955 ± 0.012
136 | CGAGTCCCAC | 1 ± 0.12
137 | CGAGTCCGTT | 0.99 ± 0.018
138 | CGAGTGGATG | 0.994 ± 0.018
139 | CGAGTTGGTA | 1.01 ± 0.025
140 | CGAGTTTGAC | 0.977 ± 0.019
141 | CGATACGTGG | 1.02 ± 0.042
142 | CGATAGGGGC | 1.08 ± 0.14
143 | CGATAGTTGT | 1.27 ± 0.38
144 | CGATATATGA | 1.02 ± 0.019
145 | CGATATGTAG | 1.016 ± 0.0045
146 | CGATATTGAT | 1.03 ± 0.035
147 | CGATCCCGGG | 1.07 ± 0.11
148 | CGATCCGTCC | 1.09 ± 0.032
149 | CGATCGATAT | 0.998 ± 0.032
150 | CGATCGGATT | 1.01 ± 0.017

Row | Sequence | switch fluorescence ratio
151 | CGATCGGTAC | 3.3 ± 0.38
152 | CGATCGTAAT | 2.1 ± 0.036
153 | CGATCTTGTT | 0.982 ± 0.018
154 | CGATGAAAGG | 0.966 ± 0.023
155 | CGATGCTAGT | 1.07 ± 0.037
156 | CGATGGAGGA | 0.98967 ± 0.00091
157 | CGATGGCCCT | 1.03 ± 0.011
158 | CGATGGGGGG | 0.982 ± 0.06
159 | CGATGGTAAG | 0.972 ± 0.011
160 | CGATGGTCTG | 0.9872 ± 0.0018
161 | CGATGTCGAA | 1.01 ± 0.011
162 | CGATGTCGCG | 0.989 ± 0.028
163 | CGATGTTATG | 1.02 ± 0.022
164 | CGATTAAAAT | 0.986 ± 0.021
165 | CGATTAAATG | 0.993 ± 0.013
166 | CGATTAAGGT | 1.02 ± 0.043
167 | CGATTATGGT | 1.003 ± 0.0094
168 | CGATTATTTG | 0.9786 ± 0.0053
169 | CGATTCAAGG | 1.03 ± 0.017
170 | CGATTCGGTG | 0.9698 ± 0.0031
171 | CGATTCTGCT | 0.996 ± 0.036
172 | CGATTGATGT | 1.02 ± 0.016
173 | CGATTGGTAC | 1.25 ± 0.023
174 | CGATTTGCTT | 0.969 ± 0.058
175 | CGATTTTGTA | 1.01 ± 0.051

Row | Sequence | switch fluorescence ratio
176 | CGATTTTGTT | 0.989 ± 0.034
177 | CGCACTTGGG | 0.99283 ± 0.0007
178 | CGCAGCTATT | 3.56 ± 2.1
179 | CGCAGGCTTG | 1.04 ± 0.043
180 | CGCAGGGGGA | 1.033 ± 0.008
181 | CGCAGGGGGC | 1.14 ± 0.059
182 | CGCATAGGCT | 1.11 ± 0.18
183 | CGCATGATGT | 1.03 ± 0.018
184 | CGCATGGGGT | 1.0574 ± 1.7e-05
185 | CGCATTCGTG | 1.08 ± 0.029
186 | CGCATTCTAA | 1.31 ± 0.019
187 | CGCATTCTGC | 1.17 ± 0.091
188 | CGCCCGTAGG | 1.05 ± 0.011
189 | CGCCTCATGA | 1.04 ± 0.029
190 | CGCCTTGGGG | 1 ± 0.05
191 | CGCCTTGTTC | 1.01 ± 0.012
192 | CGCGAAAGCC | 1.002 ± 0.01
193 | CGCGAAGAAC | 1.039 ± 0.0088
194 | CGCGAGGGGC | 1.07 ± 0.012
195 | CGCGATCGCG | 0.994 ± 0.055
196 | CGCGCCCCTT | 1.13 ± 0.015
197 | CGCGCGATTA | 1.02 ± 0.036
198 | CGCGGATTCT | 1.04 ± 0.021
199 | CGCGGCTATT | 1.07 ± 0.034
200 | CGCGGCTGGG | 1 ± 0.026
